The DeepSol protein solubility set

Assay: soluble on expression in E. coli; label from the status in PepcDB or PDB records

Sequence	soluble on expression in E. coli
MVAPETERIRTQIRVYLLVEDLQRQFAAYLGTPTRARGYPPYEGEHALIVEVSPALAIERVIDLALRAVPGVQPGILYVERQFGVLEIHSASLDEVRRAGEAILAGTGNRAEDQLRPRVLFHDIITDITDQHAVILNRNRQASMILPGQSLLVYEMTPALFAAVAANEAERVAPGLTVVDVQMIGAAGRLYIGGSTDEVTVARDHITTVLSAIEGQEH	not soluble
MTSAYFGVAGGGNAGAQSAYFGVGGGPAGGGGGNKSAGGGGAPPPGVSCYLGAGAGGAASGSQSAYFGVGGGPVGGGGGGGAPPAASNDAGYFATPPAAPAGGSSTMTAVGGAPRGASTMTAVGGAPVGGSSTMTAVGGAPSGASTMTAIGGAPRGASTMTAVGGAPMGGGSTMTAVGGAPSGASTMTAVGGAPSGASTMTAIGGAPRGASTMTAVGGAPMGGSSTMTAVGGAPIGGSSTMTAVGGAPRGASTMTAVGGAPGGASTMTAMGGGPSAFGGAPPPPSGSAMGGGGGGGATSAYFGVGSGAMGGGGAGAQSAYFGVGGGPVGGGGGGAKSGGGGGGIPGQSVYMGAGGGGGGGGGGGATSAYFAPR	not soluble
MSLVKNEEKLLEVINKYELNSIFSQEIMPFLELHMFKKNEHICFMNEELNYLYFFVHGKAKVYKTLPNGKSLLLEFYEPVQLIGDLELISKIKANCNVKALKSSLCIAIPIQAVNSIALKDLNFLMYITKNLSNKLAKCSVTSSITITYPLETKLASYLLAMNSNNIIMIDNYSNLADLLGTSYRHLNRVLNKLVEKGIILKDKNEIKILNKEELENICVDLNEGHHHHHH	soluble
MTMTTMPESLNSPVSGKAVFMEFGPPNQQMSPSPMSHGHYSMHCLHSAGHSQPDGAYSSASSFSRPLGYPYVNSVSSHASSPYISSVQSYPGSASLAQSRLEDPGQDLVPKQAIQVQEADEAGWGGSGG	soluble
MIPRILGALLLCLACAAQAGVYTYIDAEGNRVYTDQPPSGRKAQRVELAPGNSVAPPGIRYRPPAAPLEVKPPAYQLLRILFPEPDATLRANSGDVIVTVTSEPALLPGHRYRLLLDGKPAGVPGRSPVFPLKNLDRGTHQVAVEIIDGDGMTVESTPSQPFHLHRVSIAGQPLPEVDTPLVSAIEPSER	not soluble
MRGSHHHHHHGSRVMVIGGDGYCGWATALHLSKKNYEVCIVDNLVRRLFDHQLGLESLTPIASIHDRISRWKALTGKSIELYVGDICDFEFLAESFKSFEPDSVVHFGEQRSAPYSMIDRSRAVYTQHNNVIGTLNVLFAIKEFGEECHLVKLGAMGEYGTPNIDIEEGYITITHNGRTDTLPYPKQASSFYHLSKVHDSHNIAFTCKAWGIRATDLNQGVVYGVKTDETEMHEELRNRLDYDAVFGTALNRFCVQAAVGHPLTVYGKGGQTRGYLDIRDTVQCVEIAIANPAKAGEFRVFNQFTEQFSVNELASLVTKAGSKLGLDVKKMTVPNPRVEAEEHYYNAKHTKLMELGLEPHYLSDSLLDSLLNFAVQFKDRVDTKQIMPSVSWKKIGVKTKSMTT	soluble
MPSEKAFIQHLRTASFQGLHLHHFHQKVGKCGVVGFDIHIFPTLLPAAQGILDIQLGLFRIDCAPLAVYRRTQVDFIHTVIDGIASDQAFSEVVQILRRLNLGHFTDTHLIAQARRFIADFGNIRPMRRGKAETFCRCFRFDGIDRIHGDFRQCGHINRLAAGKNCRNGKRDKVFFHAPIIIKFALRKQIVRQEK	not soluble
MNQKIYWDELKEGEQFSYGHYQVSEHENIDFAKRYDPMEFHVDPEKAKLSPIGALCASGIHTLGIMQRLTFDNIYTNWHIVAGRELRKCQFRLPVFVDDCLTVNMTIAKLSVDTRSDRGNAELTFDVKNAKGKTVLEVEGEIVLQRFPSILEHHHHHH	not soluble
MKKWEKQTMKIAALGAMALTLAGCATAKSSSSQGNNPGKTIKIGVNMELSGSAAGYGEQQKQGIQLAVKKINKSGGIKVGGTKKKIQLVIRDNKTSNTTAASVAAQLVNNDKVVAVVGPATTSAGTAAIPNMTKAAVPSVSPSATDPDYTLQKSGKVQKYIFRACYQNNFQGATAATFVTKNLKAKRVAILTDNSSDYGTGLTKAFKKQYRGTVVSSQTFQEGDKDFNAILTALKHKKIDAIYAPGYYSEIGLIVKQARQAGIKAPIVGSDGMADAKLAQIAGKSNATNVYYTTPFSTKASATNKVASKFMSAYKAKYGSTAPTFSALAYDSVYMIKAAIEKEGSANSVKIADGLAKLKNFKGVTGTMTIDKQHNPEKTISIEQLTNGVVSKVYNVK	soluble
MGLTVEAADEKGLTLRLPYSQAIIGNPESGVVHGGAITTLMDTTCGISTVCVLPDFEICPTLDLRIDYMHPAEPHKDVYGFAECYRVTPNVIFTRGFAYQDDPGQPIAHVVGAFMRMGLEHHHHHH	not soluble
MTAKTLIVLIGPTGVGKTELSLRIAEYFKTSIISSDSRQLYAELKIGTAAPTPEQLKRVPHYFVGTLQLTDYYSAAQYETEVMSVLEQLFQQHHVVLLTGGSMMYVDAICKGIDDIPTVDAETRELLLHKYDTEGLDNLCAELKLLDPEYYKIVDLKNPKRVIHALEICYMTGKTYTSFRTQQKKERPFHILKIGLTRDRAELYDRINRRVDQMMDEGLLEEARSVYAHRELNSLNTVGYKEIFKYLDGEWDLDFAIEKIKQNSRIYSRKQMTWFKRDEEIRWFHPEQEKEILSYLQASIKLEHHHHHH	soluble
MGHHHHHHSHMDFSHWPHVLPLEPGGCIDFQTENSSRHCLVTYRPDKNHTTIRSVLMEMSYRLDDTGNPICSCQPVHTFFGGPTCKLLTKNAIFQSPENDGNILVCTGDEAANSALLWDAASGSLLQDLRTDQPVLDICPFEVNRNSYLATLTEKMVHIYKWE	not soluble
MNVIEGVVATPNARVAIAIARFNNFINDSLLDGAIDALKRIGQVSDDNITVVWVPGAYELPLVANVLAKTNRYDAVIALGTVIRGGTAHFEYVAGEASSGLSSVAMNSDIPVAFGVLTTESIEQAIERAGTKAGNKGAEAALTALEMINVIKAIKG	not soluble
MSLFTGENWDPYEWAKVFKKSGAKFVVLVAEHHDGFALWESNYTRWCATKIGPKRDIVRELKEAVEGQGLIFGISYHRAEHWWFFDQGMKIESDVKDPRYLDLYGPAQSASLNPRDPPSLDNVQPNDEFLMDWLLRIVEAVEKYRPWLVYFDWWIANPSFQPYLKAFASYYYNRSYKWGIEPVIIYKQGAFGEGTAIPDLAERGTIKNVYPSTWLADTSIDYKSWGYIKDAEYKLPSVILSHLGDVVSKNGVFLLNIGPKADGTIPEEAKRILLDVGDWLNVNGEAIFGSKPWRVYGEGPSGINEGGFFTERKITLGYQDVRYTVKDYYPRQRHIYAILFGKPKEITLRSFMKNLKLIEEAVIVDVSRLDGKGKLEWSLSDEGLKIKIEEVIRAPLVIRVILDYREGHHHHHH	not soluble
HHHHHHHHHHMLPTPYVKCDYDKVYEPAEDSFLILDCLEKEHDFLKQKFGNRLAIVCEIGSGSGIVTTFLMQNKIIPQENSIHLAVDINPWALEATLDTAKLNSCKSSFLEVIQADLNSSIRNNQVDVLIFNPPYVPAECVPDVPGSREEADQWLDLALLGGKDGMAITDKLLRQLEQILSPDGVAYILFCARNKPKEVIKRFVDTYKWNVKLIETRKAGWEVLSVYSFTR	not soluble
MKTYYEQDANVGLLQGKTVAVIGYGSQGHAQAQNLRDSGVEVVVGVRPGKSFEVAKADGFEVMSVSEAVRTAQVVQMLLPDEQQAHVYKAEVEENLREGQMLLFSHGFNIHFGQINPPSYVDVAMVAPKSPGHLVRRVFQEGNGVPALVAVHQDATGTALHVALAYAKGVGCTRAGVIETTFQEETETDLFGEQAVLCGGVTALVKAGFETLTEGGYRPEIAYFECLHELKLIVDLMYEGGLTNMRHSISDTAEFGDYVTGSRIVTDETKKEMKRVLTEIQQGEFAKKWILENQAGRPTYNAMKKAEQNHQLEKVGEELREMMSWIHAPKELVKK	not soluble
MGSDKIHHHHHHMQTFPAYSSMQLSLSPTQCQPLKIIALGDSLVYGFGDPDKGGWVEQLRRWWMLPDSSGHVLYNLGVRGDRTQQVAQRLEVEFRHRGELRNRVPDLIILSVGVNDSARLTRLNGRNCTDFALFESEIASLLDQAQQLCPVLFVGMVPVDEAKMPFLNCFYFNHADQYRYKEATRIACNQRQIPYLDIFDQWMARGDAWRNKRLTEDGLHPNTLGYQSLLEDVIHWEHLAGYHTRPDYQLK	not soluble
FNWDRAMYSLITYFLAYKVIDIVIQGVDESKSAFIISRYYEEIGAEIMEQLGKGVTYLDATGGYSGDVRKVVFVIVSRFEEVKVKAILDEIDPDAFLAVGGSMSEVRGGKLMNTKTPHL	not soluble
MVRTCSNCGSSEIDEDAARGDATCTACGTVLEESIVVTENQFQERAGGSGHTLVGQFVSSERAAANNFNGMGSQESREMTYAKGRKVIDELGSQLRINSHCMNTAFNFYKMCVSRNLTRGRNRSSVVAVCMYITCRLENTAHLLLDFSDVTQINVFDLGRNLNYLSRSLRINLPSTDPCLYIMRFACVLDFGDKQKEVVNLATRLVQRMKRDWMSTGRRPTGICGAALLIAARSLNFNRSINDIVRVVHISEGVIRKRLDEFSQTPSGSLTIDEFSTVDLEHSEDPPAYRESRRKAREDQLRKEAEQAESMKEQLGEMEAHVEAALDKKRKEKFSKSPYARMISENLGKENDKMQTLTETVVESSGLEKGADEMVRNEIINTVFNAAEEDPCTSNSLEKYDKYRPSLESLGIKRTSEPEPEPVPHPIVNADLEEDISDSEIDSYILTESEVAIKTDYWMKANGEAMKEIEEKKRERELNGGVKKKKPRSNRKTDTTSTSVASAVEKVIAEKKLSNKVNYEMLKDLETMATGIKRDIRESTPAPVTPISIKVDSSDVTPDTLSKSEKIARGKNIRSQASESTIQKLRSIFDLTEECSETSKNSSPKVNLKVESASPSTSEVSSIEHKPFVPPARSRYAKVKPIIGAKKLAALNEVKNVHTVPEPSAPAEPIVSEAPLQVKTSSSDPIVTSTEVPSVAEPPAPIQNVEEAKPIVPVKSRYAKAKPNLKPIKQKTAVDVVTVGEGESSEPSAKRTKAEHLES	not soluble
MRQKGHRHGRTVSPCAGCKLLRRKCVKDSCVFAPYFPAKEPYKFAIVHKIFGASNVNKMLQELSENHRSDAVDSMVYEANARIQDPVYGCVGTISSLHRQLETLQTQLAFAQAELIHIRTLHRIHTKPPPYTASTVTFPSNKDFYSDIDMAVAYTDDAGDFLWSC	soluble
MQSTATYGSTISSGTSRTLKITEIGGSNLTSGMSPFGGHAASAIRESRTREKKEMSELNDRLASYIEKVRFLEAQNRKMEKDLNLLRGKWGHDSTSVKVMYETELRSAKDLIADSDKERAQLEDQIKKLVEELNNYRNKLHEAERGADVTRKELDNVLGRLGALEAEIELLKRRISLMEESIGHLKRENHRMIDSLHHARIFQAVEQETLNRIDYQNQVQTLLEECDFIRRIHDSEIHDLLAMASRDTTVENREYFKNELSSAIREIRSEYDHVSNTTRTDIESWYKLKVQEIHTQNSRNCLEQNYAREEVKRLRTTLGDMRGKMADLEGRNLLLEKQIEDLNYQMEEDMRSYEQSLNDKDTSINKLRDESKILMVELQMLIDTKQTLDAEIVIYRKMLDGEENRAGLRQLVEQVVKTTSIHQTKEIESLRVLKGETTSHSSYSRSAKGNIAIQEAEPSGKYIVLENISRRDENIGDWKLRRKIAGKREIVFTFPREFTLRAQKSVKIFARGQGVHSPPDSLVYDLEDSFGTGNDVVTTLYNKEGEDRASHSQRASHT	not soluble
MGSDKIHHHHHHMIRKIIKIDKEKCNGCGACASACHEGAIDIIDGKAELVREHFCDGLGDCLPECPTGAISFEERDAPAYDEEAVKEAQKKIAAKNRAISSHSGCPGSKIMQIRRTETSEPVKATSTADSGSKLQNWPVQIKLAPVNAPYFNGSKLLIAADCTAYAYAAFHQDFIRNKVTLIGCPKLDQVDYSEKLTAIIQNNSIQSVTIVRMEVPCCGGLEIAAKKALQASGKFIPWQVVTISIDGKIME	not soluble
